US20180143213A1

Tests used:
[1] = target: beta2-adrenergic receptor-luciferase fusion protein (human); assay: bridge assay (Example 4A), sc-569 at 200 ng/ml in buffer
[2] = target: beta2-adrenergic receptor-luciferase fusion protein (human); assay: bridge assay (Example 4A), sc-569 at 5 ng/ml in buffer
[3] = target: beta2-adrenergic receptor-luciferase fusion protein (human); assay: bridge assay (Example 4A), sc-569 at 1 ng/ml in buffer
[4] = target: beta2-adrenergic receptor-luciferase fusion protein (human); assay: bridge assay (Example 4A), sc-569 at 2 ng/ml in buffer
[5] = target: beta2-adrenergic receptor-luciferase fusion protein (human); assay: bridge assay (Example 4A), sc-569 at 100 ng/ml in buffer
[6] = target: beta2-adrenergic receptor-luciferase fusion protein (human); assay: bridge assay (Example 4A), sc-569 at 10 ng/ml in buffer
[7] = target: beta2-adrenergic receptor-luciferase fusion protein (human); assay: bridge assay (Example 4A), sc-569 at 500 ng/ml in buffer
[8] = target: beta2-adrenergic receptor-luciferase fusion protein (human); assay: bridge assay (Example 4A), sc-569 at 20000 ng/ml in buffer
[9] = target: beta2-adrenergic receptor-luciferase fusion protein (human); assay: bridge assay (Example 4A), sc-569 at 1000 ng/ml in buffer
[10] = target: beta2-adrenergic receptor-luciferase fusion protein (human); assay: bridge assay (Example 4A), sc-569 at 5000 ng/ml in buffer
[11] = target: beta2-adrenergic receptor-luciferase fusion protein (human); assay: bridge assay (Example 4A), sc-569 at 20 ng/ml in buffer
[12] = target: beta2-adrenergic receptor-luciferase fusion protein (human); assay: bridge assay (Example 4A), sc-569 at 10000 ng/ml in buffer
[13] = target: beta2-adrenergic receptor-luciferase fusion protein (human); assay: bridge assay (Example 4A), sc-569 at 50 ng/ml in buffer
[14] = target: beta2-adrenergic receptor-luciferase fusion protein (human); assay: bridge assay (Example 4A), sc-569 at 2000 ng/ml in buffer

- RLU [1]: 187000 RLU
- RLU [2]: 28100 RLU
- RLU [3]: 24400 RLU
- RLU [4]: 25800 RLU
- RLU [5]: 93900 RLU
- RLU [6]: 33400 RLU
- RLU [7]: 392000 RLU
- RLU [8]: 2.87e+06 RLU
- RLU [9]: 558000 RLU
- RLU [10]: 1.71e+06 RLU
- RLU [11]: 45100 RLU
- RLU [12]: 2.39e+06 RLU
- RLU [13]: 76000 RLU
- RLU [14]: 948000 RLU
Substance: Antibodies against B2 (sc-569 Santa Cruz, Calif., USA) (antibody)
